# Results reported in the DeepSol protein solubility set.
# Assay: soluble on expression in E. coli; label from the status in PepcDB or PDB records
row,Sequence,soluble on expression in E. coli
1,MGHHHHHHSHMTLEELVACDNAAQKMQTVTAAVEELLVAAQRQDRLTVGVYESAKLMNVDPDSVVLCLLAIDEEEEDDIALQIHFTLIQSFCCDNDINIVRVSGNARLAQLLGEPAETQGTTEARDLHCLPFLQNPHTDAWKSHGLVEVASYCEESRGNNQWVPYISLQER,soluble
2,MSLTTVGIRGTFFDFVDDPWKHIGNEQAAARFHQDGLMVVTDGVIKAFGPYEKIAAAHPGVEITHIKDRIIVPGFIDGHIHLPQTRVLGAYGEQLLPWLQKSIYPEEIKYKDRNYAREGVKRFLDALLAAGTTTCQAFTSSSPVATEELFEEASRRNMRVIAGLTGIDRNAPAEFIDTPENFYRDSKRLIAQYHDKGRNLYAITPRFAFGASPELLKACQRLKHEHPDCWVNTHISENPAECSGVLVEHPDCQDYLGVYEKFDLVGPKFSGGHGVYLSNNEFRRMSKKGAAVVFCPCSNLFLGSGLFRLGRATDPEHRVKMSFGTDVGGGNRFSMISVLDDAYKVGMCNNTLLDGSIDPSRKDLAEAERNKLSPYRGFWSVTLGGAEGLYIDDKLGNFEPGKEADFVALDPNGGQLAQPWHQSLIADGAGPRTVDEAASMLFAVMMVGDDRCVDETWVMGKRLYKKSEGHHHHHH,soluble
3,MGHHHHHHSHESVVPARMAEMARCIRERDFPSFAQLTMKDSNQFHATCLDTFPPISYLNAISWRIIHLVHRFNAHHGDTKVAYTFDAGPNAVIFTLDDTVAEFVAAVWHGFPPGSNGD,not soluble
4,MFLEKDMQKNTLWFNGLSMDDVDKVGGKNASLGEMVSNLANVGVSVPNGFATTSYAFNQFLDHEGLDERIHQLLDELDVDDVEALRKTGATIRQWVLQAPFPADLEQEIRNNYEELIEGNTELSVAVRSSATAEDLPDASFAGQQETFLNVKGIDAVLEATKHVYASLFNDRAISYRVHQGFDHRGISLSAGIQRMVRSDKASSGVMFTLDTESGFDQVVFITSSWGLGEMVVQGAVNPDEFYVHKPMLEAGEHPIVKKTFGSKLIKMIYSNNQEIGKQVDIIDTSEEERNTFSLNEEEIKELAKQAMIIEKHYQRPMDIEWAKDGIDGKLYIVQARPETVCSQTEQNVIERYELNNKADVLVEG,not soluble
5,MPALSGGDGVIRFQQVSKAYRGGRQALQKVDFHLRRGEMAFLGGHSGAGKSTLLKLICAIERPTDGKISFNGHDITRIPNKDIPFLRRNIGIVFQDHRLLMDRSIYDNVALPMRIESISENEIKRRVSAALDKTGLLDKARCLPSQLSGGEQQRVGIARAVVNRPTLLLADEPTGNLDPELSSRVLRLFEEFNRAGVTILLATHDIHLVNSRPQYRHLELNQGFLSEVADYGR,not soluble
6,MTENAPKFKQISAEIEKKIRDGLYVSAQKLPSEYDLAKEYNCSRLTIRKAIDDLIRKNILVKRHGKGSYVMSQAKIQSGRAGLQGFTEAAKAYGKKSQTEVISFEEVVHPAEKIREALQVGKNEAIYELIRRRMLDGEPMTVEKIYLPQAYVQGHTKQDFEGSLFCLIEKNVEIAYSHQEIEAILVEAEISELLNVPVGQPLLQVHSITYALDATPILYDVSLYRADRYTFKNTLTRYSPSENNQVELGGSWNE,not soluble
7,MEDNRVEEDGEVKSDVGTSSDEKASDSEVEKRQRTDSERSGKDKKKKHKKEKKHKKDKKHKKEKKHKREKEVEMENDGPPAKKRTLEEVDTKKDESKKKEAKESSRNNEDELRNPPRRERSKSAERRDRELRERRDAERRDRSLSKERRLIQRKREDNRRDPRAHEGNRRRDRTPERFRNNRDRRDRDGRREDRHRRSPDRRRDSDRKREDGKRKDESKDVEWNLDSDSDDEQKKIEAARKRRIQIIKKIEGHTEENTPRDSSTPRSDTIGDKKTDESEDSSSDSEDDEDDRKLAEAKDLIKSTRFGSEQGSGASTPVSIQSDNDTPTDFFSGLRDKMVHMKDADEHNVDEVLQRGKDEEYREDWHTQLKEQEKREEEEKKKKLEAEAAAEAAKKKKQEEDDTGFDMFADNEELPQDSTTIDGHSGAVHDTLKDNWDDVEGYYRVRIGELLDTRYRVVGFTGAGVFGNVCRCNDQTKGNTVAVKIIRNNEVMYKTGLRELEVLRKLNEADKEDKYHCLRLFRTFKHHNHLCLVFENLSMNLRELLKKYGQKDGLHLKAVRSYAQQLLLALRLLKKLEFVHADIKPDNILVNESKLTLKLCDFGSAGRVNEQELAPYLVSRFYRAPEIMLGVRHDYAIDLWSVAVTLYEVYTGKIMFPGRTNNHMLKLFTDVKGKYPNKLVRKSQFKDTHFDVNCNLLYQEVDKVTERNKITVLANLKPTRDLESELIAGQRLSRDQMDQIQAFRTLLDGMLILDPSKRTTCNEALKHPFFTIPIK,soluble
8,MGSDKIHHHHHHENLYFQGMGTDKFNNIKIDKYENLINVLKTGDIFLCSGNYLVSKLIKKVSESMFSHTGIIVKWGEHTLIMESVEDDGVRIVPLEHYIKNYENSNNRYNGSLFIARHELLQNVNDDSEMIRNLIKVGFSLLNSGYDKNEIAQIVARIGLGIGRHEDNNEYICSEFVNECFKKIGVEFLTDSEGFIFPEHIAADHHVLPIAQIE,soluble
9,MIKLSPIDKYKQDLTRDDFLFDAAQENAVIHLQRLYDDLQSKPLAVSGFKKVLNRWKKVYKKQEQEPIKGLYFWGGVGRGKTYLVDTFFESLPFNNKMRVHFHRFMHRVHQELKSLSGQSDPLKIIAKKFADETQIICFDEFFVSDITDAMILGTLFEELFAHNVTLVATSNIIPDELYRNGLQRERFLPAIKLINKHTLIVNVDSGVDYRLRTLEQAEIFHYPLDAQADENLKHYFKQLSTDEGKSGQSIEIHNRPLKTVLVSDGVVYFDFSVLCESARSQGDYMEISQLYHTVLMANVKEMGPDSDDTTRRFIALVDEFYERNVKLIMSAELPLDDLYSGGRLAFEFKRCLSRLQEMQSHDYLASEHLPLEHHHHHH,not soluble
10,MQFFISSAILFSYAFCQSIPNVILTGEPRVVARRILNVDMKAAQQLALPDDQQHVRYQVNVVRNQENPSDSTYLTGERTPVTVYRRILRPARITFTGDGVITDSWQGTSDAVEMESWTLNRRPTIDGSFVQPTQNQQGAFH,not soluble
11,MAHHHHHHMAPPQTTLSLDANLRNTLRSLLIERLCSPTQPLPAKQLYDELTNRSRLVEEFHFSKTSRRITRQRLALQFLRRYNVLLHGLFFYSEGTRTWNTTTEFHRLAILGESVLLTEVRTRLLKLFPVMPYAAYVQSLPHMVGEEALAAAFDRYEMQNIVGAKPSNQRSGTPLTRMQKSHMLCAIVAEMYWFTARTKPTDLTHNNALFPPSDVLILHVLSTHLLENLPAELIYNVVEPIVADIKRVWVNEPMSLPSQLRLTPRTVGALSLNAVPVDLRYTAKEDAVMSLQKKHEEAHRRQHALTREPDHSCVKSFMRPSCNYRIFDGPRYQILSSDNRVAPLPLAQERSSLPASAVCTVVDDADSAARAMELAKMAEQW,not soluble
12,GGVRPATNAYGGGSTTDNPNRFMYYPSHPVPGTQGGVVLAAYSWSDDAARWDSFDDAERYGYALENLQSVHGRRIEVFYTGAGQTQSWLRDPYACGEAAVYTPHQMTAFHLDVVRPEGPVYFAGEHVSLKHAWIEGAVETAVRAAIAVNEAPVGDTGVTAAAGRRGAAAATEPMREEALTS,soluble
13,MDIARPSCYETVRNDDDKKSSDADIYNTSVKLEDPSAPSHDEQWTYNFFITPLNLNISPTDFKIPNDKSVKYTVKCEAKIKQDLIVQVHSLFFEIVGARCKRGVTSQEFHILSENETMTFEVGMKDLNNVSYENYQAANLLSPAGFITFTHFKSLRKDDASWGVKDPKKLMKVVTKGDGGRYNLEKLLVETETDSIKKISEDFAMILQQGMDDKRTKEQEMKMGNMEMFATEEYVEKWKKDKKAIEIAQKNQREWNDKKLEKPGMQKKKEKKCNIM,not soluble
14,MAHHHHHHMPPLAQLCALALQYRCDLSQEIDQNIRSCFHSSRVPSISLWDYIRRFAKYSVCSEECFILAMVLMDRYVCKTQIPITLRNVHRLYITAMTLSVKLRDDSYYSNAYYASIGGVVNAELNVLELELLDIVQWFTWVEKSVYDAYVARLEALFGDAMPKLLVASPNK,not soluble
15,MHTSILLLTALCAGAYAQFSANGQAAILNVHNTLRSRIAKGTYVAKGTAKPAASDMLKMKWDATVAASAQAYANKCPTGHSGAAGLGENLYWYWTSATITNIDQFGATGSAAWEKEFQDYGWSSNTLSMSLFNTGIGHATQMAWAKTNLIGCGVKNCGKDTNGFNKVTVVCQYKPQGNYLNQNIYTSGTTCSKCPSGTSCEAATGLCA,not soluble
16,MGSDKIHHHHHHIWCTPTRLARPDRRGKAIRTIGMADGTIPMNAKPTEEISVREVFGIDTPMLVKGFAERSDRVPEIDQTYKFDPDTTLAILAGFSHNRRVMVQGYHGTGKSTHIEQVAARLNWPCVRVNLDSHISRIDLIGKDAIKLRDGKQVTEFHEGILPWALRNPVAIVFDEYDAGRADVMFVIQRVLEHDGKLTLLDQNEIITPNPCFRLFATANTVGLGDTTGLYHGTQQINQAQMDRWSLVATLNYLSHDAETMIVLSKAPHYNTEKGRKQVSQMVTVADLTRTAFMNGDLSTVMSPRTVINWAQNAEIFRDVGYAFRLTFLNKCDELERQTVAEFYQRCFDEELPESAASTSLG,not soluble
17,GPGSMVEVPRNFRLLQELEAGEKGTGVSQSVSIGLSGMDDIYMHNWNGTILGPPGTTFENRILSLEIHCDEHYPKRPPNIKFISRVNLPCVSSDGTVDKNKFAVFKTWDRNFTMAHCLMELRREMSLPANKKLPQPEEGSTY,soluble
18,GMEPLKVEKFATANRGNGLRAVTPLRPGELLFRSDPLAYTVCKGSRGVVCDRCLLGKEKLMRCSQCRVAKYCSAKCQKKAWPDHKRECKCLKSCKPRYPPDSVRLLGRVVFKLMDGAPSESEKLYSFYDLESNINKLTEDRKEGLRQLVMTFQHFMREEIQDASQLPPAFDLFEAFAKVICNSFTICNAEMQEVGVGLYPSISLLNHSCDPNCSIVFNGPHLLLRAVRDIEVGEELTICYLDMLMTSEERRKQLRDQYCFECDCFRCQTQDKDADMLTGDEQVWKEVQESLKKIEELKAHWKWEQVLAMCQAIISSNSERLPDINIYQLKVLDCAMDACINLGLLEEALFYGTRTMEPYRIFFPGSHPVRGVQVMKVGKLQLHQGMFPQAMKNLRLAFDIMRVTHGREHSLIEDLILLLEECDANIRAS,soluble
19,MSLGEWKDELIHNADKFDFPIFTPYYELTDEQRRTLWEGNQYFHGINDFFKMLEENQYKIQYRVMLARYRGKTICPKCHGTRLKPEAGYVRVDGKSISELVDLPITELKEFFDHLNLNEHDSNVARRILIEINSRIRFLIDVGLGYLTLNRLSNSLSGGESQRINLATSLGSSLVGSLYILDEPSIGLHSRDTDRLIRVLRQLQELGNTVVVVEHDEEIIRAADYIIDIGPNAGRLGGEVVYQGDMKDLKKGSNSHTVRYLLGEEEIPVPEHRRPWNNYIELTGARENNLKGVNVKFPLNVMTVVTGVSGSGKSTLVRDIFYRALKRELDECSDRPGEFSSISGSLRDLRNIEFVDQNPIGKSSRSNPVTYIKAYDEIRKLWAEQPLAKQMGYTAGHFSFNSEGGRCEECKGEGTITVEMQFMADLVLECESCHGKRFKADTLEVKFQDKNIYDVLEMTVNQAVEFFTEHGQKKIVKRLLPLQDVGLGYIKLGQSSSTLSGGENQRVKLAFYLSQEKADPTLFIFDEPTTGLHFHDIRKLLDAFDALIRRGHSIVIIEHNMDVIKCADYVIDLGPEGGDKGGNIVAVGTPEEVAACGASYTGQFLKEKLAEGHHHHHH,not soluble
20,VPACTVSNTTVDWQDVEIQTLSQNGNHEKEFTVNMRCPYNLGTMKVTITATNTYNNAILVQNTSNTSSDGLLVYLYNSNAGNIGTAITLGTPFTPGKITGNNADKTISLHAKLGYKGNMQNLIAGPFSATATLVASYS,soluble
